Test results taken from CN115850497A (SHAANXI MAI YUAN BIOTECHNOLOGY CO LTD, dated 2023).
One block for each binder: values may come before it.

What was measured:
[1] = biological target: T1, YKL-40-6his expressed from pcDNA3.1 in transfected 293T cells (human, UniProt P36222 22-383); assay: CBA, immunofluorescence of hybridoma supernatant on transfected fixed 293T cells
T1 construct: whole, on cells; also called YKL-40(YKL-40-6his); not shown: 6his tag

[2] = biological target: YKL-40-strep (YKL-40 protein expressed from pGEX 4t-1 in E. coli BL21(DE3)) (human) (UniProt P36222); assay: ELISA, uncloned hybridoma supernatant (plate 10, well F1) on coated YKL-40, 1st screen
[3] = biological target: YKL-40-strep (YKL-40 protein expressed from pGEX 4t-1 in E. coli BL21(DE3)) (human) (UniProt P36222); assay: ELISA, supernatant of subclone 10F1-G8-D9 on coated YKL-40, 3rd screen
[4] = biological target: T1, YKL-40-6his expressed from pcDNA3.1 in …; assay: immunofluorescence of 293T supernatant on transfected fixed 293T cells
[5] = biological target: T2, Q YKL-40-293-310-6his (YKL-40 construct lacking residues 293-310) (human, UniProt P36222 22-383); assay: immunofluorescence on transfected, acetone-fixed 293T cells
T2 construct: also called 缺失氨基酸区间293-310组; not shown: 6his tag
T2 sequence (P36222 other isoform, or with tags, fused parts or gaps limits assumed): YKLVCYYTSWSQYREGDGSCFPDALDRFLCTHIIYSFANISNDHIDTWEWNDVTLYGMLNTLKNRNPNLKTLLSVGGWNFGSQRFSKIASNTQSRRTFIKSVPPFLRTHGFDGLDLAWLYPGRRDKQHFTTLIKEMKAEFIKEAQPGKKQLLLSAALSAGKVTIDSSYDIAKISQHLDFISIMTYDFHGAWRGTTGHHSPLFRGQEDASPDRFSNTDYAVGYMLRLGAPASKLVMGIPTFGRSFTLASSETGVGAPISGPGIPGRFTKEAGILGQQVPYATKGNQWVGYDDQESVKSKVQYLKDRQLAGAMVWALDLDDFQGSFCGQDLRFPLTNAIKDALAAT

T1 sequence (P36222 22-383): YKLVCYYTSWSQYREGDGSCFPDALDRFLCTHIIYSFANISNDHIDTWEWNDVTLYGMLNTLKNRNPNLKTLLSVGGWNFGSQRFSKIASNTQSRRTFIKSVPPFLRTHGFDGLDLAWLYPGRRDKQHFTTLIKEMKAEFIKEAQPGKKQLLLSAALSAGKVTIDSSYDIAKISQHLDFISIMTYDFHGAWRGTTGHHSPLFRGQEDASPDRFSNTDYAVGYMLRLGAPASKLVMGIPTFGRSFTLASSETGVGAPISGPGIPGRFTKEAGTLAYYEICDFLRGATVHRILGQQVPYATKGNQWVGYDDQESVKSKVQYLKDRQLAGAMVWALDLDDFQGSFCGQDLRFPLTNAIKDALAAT

binding result [1]: binds
OD450 [2]: 0.905
OD450 [3]: 1.14
B1: 单克隆抗体10F1 (hybridoma-derived, clone 10F1-G8-D9) (antibody, V domains shown)
VH: EVQLQESGPSLVKPSQTLSLSCSVTGDSITSGYWNWIRKFPGNKLEYMGFISYSGNTYYNPSLKSRISITRDTSKNQYFLQLNSVTTEDTATYYCVRKGDYDGAWFAYWGQGTLVTVSA
VL: DIQMTQSPASLSASVGETVTITCRASGNIHNYLAWYQQKQGKSPQLLVYNAKTLADGVPSRFSGSGSGTQYSLKINSLQPEDFGSYYCQHFWSTPLTFGAGTKLELK
notes: Mouse hybridoma antibody; Tested as hybridoma culture supernatant; also called YKL-40单克隆抗体

binding result [4]: binds
binding result [5]: no binding
B2: 重组单克隆抗体10F1 (expressed from 10F1m2a + 10F1mk in 293T cells) (antibody, V domains shown)
VH: B1 VH
VL: B1 VL
notes: also called 重组10F1单克隆抗体
